Assay results taken from publication PMC9388138.
Blank lines part the entries; values can stand above or below the binder they belong to.

Experiments:
Assay in all cases: flow cytometry on cells; T cells stably expressing the IL13-based CARs titrated with recombinant biotinylated receptor (IL13Rα1-Fc, IL13Rα2-Fc or mouse IL13Rα1); dose-response curves, three independent trials
[1] = target: IL13 C4 CAR (IL13 C4 - IgG4(EQ)-Fc linker - CD28 transmembrane and costimulatory domain - CD3ζ) on T cells
[2] = target: IL13 D7 CAR (IL13 D7 - IgG4(EQ)-Fc linker - CD28 transmembrane and costimulatory domain - CD3ζ) on T cells
[3] = target: IL13 E12Y CAR (IL13 E12Y - IgG4(EQ)-Fc linker - CD28 transmembrane and costimulatory domain - CD3ζ) on T cells
[4] = target: IL13 WT CAR (IL13 - IgG4(EQ)-Fc linker - CD28 transmembrane and costimulatory domain - CD3ζ) on T cells

- Kd [1]: 29 nM
- Kd [2]: 4.2 nM
- Kd [3]: 1.8 nM
- Kd [4]: 1.7 nM
B1: Recombinant human IL13Rα2-Fc chimera (Fc fusion)
chain: DTEIKVNPPQDFEIVDPGYLGYLYLQWQPPLSLDHFKECTVEYELKYRNIGSETWKTIITKNLHYKDGFDLNKGIEAKIHTLLPWQCTNGSEVQSSWAETTYWISPQGIPETKVQDMDCVYYNWQYLLCSWKPGIGVLLDTNYNLFYWYEGLDHALQCVDYIKADGQNIGCRFPYLEASDYKDFYICVNGSSENKPIRSSYFTFQLQNIVKPLPPVYLTFTRESSCEIKLKWSIPLGPIPARCFDYEIEIREDDTTLVTATVENETYTLKTTNETRQLCFVVRSKVNIYCSDDGIWSEWSDKQCWEGEDLSKKTLLR
modifications: biotin (in the titration of CAR T cells)

- Kd [3]: 34 nM
- Kd [4]: 34 nM
B2: Recombinant human IL13Rα1-Fc chimera (Fc fusion)
chain: GGGGAAPTETQPPVTNLSVSVENLCTVIWTWNPPEGASSNCSLWYFSHFGDKQDKKIAPETRRSIEVPLNERICLQVGSQCSTNESEKPSILVEKCISPPEGDPESAVTELQCIWHNLSYMKCSWLPGRNTSPDTNYTLYYWHRSLEKIHQCENIFREGQYFGCSFDLTKVKDSSFEQHSVQIMVKDNAGKIKPSFNIVPLTSRVKPDPPHIKNLSFHNDDLYVQWENPQNFISRCLFYEVEVNNSQTETHNVFYVQEAKCENPEFERNVENTSCFMVPGVLPDTLNTVRIRVKTNKLCYEDDKLWSNWSQEMSIGKKRNST
modifications: biotin (in the titration of CAR T cells)
